We go through 2 molecules from patent publication US8431365B2, “β1,3-N-acetyl-D-galactosamine transferase protein, nucleic acid encoding the same and method of examining canceration using the same” (National Institute of Advanced Industrial Science and …, priority 2003, dated 2013).

Type in all cases: biochemical
Data set [1] concerns the target T1, human G34 protein (Homo sapiens, UniProt Q8NCR0).
T1 construct: made in house; host or cells: Sf21 insect cells (baculovirus, pFBIF-G34A)
T1 sequence (Q8NCR0 36-500): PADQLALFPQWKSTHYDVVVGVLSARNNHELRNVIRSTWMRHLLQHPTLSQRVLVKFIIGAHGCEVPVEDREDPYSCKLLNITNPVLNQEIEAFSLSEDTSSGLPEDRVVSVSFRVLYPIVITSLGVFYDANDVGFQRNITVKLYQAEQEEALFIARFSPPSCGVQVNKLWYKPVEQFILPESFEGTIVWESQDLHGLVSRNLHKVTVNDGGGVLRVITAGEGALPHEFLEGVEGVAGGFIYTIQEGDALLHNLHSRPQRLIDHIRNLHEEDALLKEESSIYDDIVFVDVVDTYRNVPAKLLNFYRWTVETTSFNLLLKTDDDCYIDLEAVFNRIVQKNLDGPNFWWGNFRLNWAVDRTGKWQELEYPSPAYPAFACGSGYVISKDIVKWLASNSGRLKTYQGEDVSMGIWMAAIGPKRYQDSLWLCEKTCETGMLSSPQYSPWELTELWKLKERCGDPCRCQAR
Briefly: Screening of GalNAc transferase activity (acceptor substrate specificity, monosaccharide acceptors). Particulars: 10 nmol acceptor, MES pH 6.5, MnCl2 10 mM, 37° C. 16 hours. From the text: The following reaction system was used for examining the G34 enzyme protein for its acceptor substrate specificity in its GalNAc transfer activity.
In the reaction solutions shown below, each of the following was used at 10 nmol as an acceptor substrate: pNp-α-Gal, oNp-β-Gal, Bz-α-GlcNAc, pNp-β-GlcNAc, Bz-α-GalNAc, pNp-β-GalNAc, pNp-α-Glc, pNp-β-Glc, pNp-β-GlcA, pNp-α-Fuc, pNp-α-Xyl, pNp-β-Xyl and pNp-α-Man (all purchased from SIGMA), wherein “Gal” represents a D-galactose residue, “Xyl” represents a D-xylose residue, “Fuc” represents a […] residue, “Man” represents a D-mannose residue and “GlcA” represents a glucuronic acid residue.
Each reaction solution was prepared as follows (final concentrations in parentheses): each substrate (10 nmol), MES (2-morpholinoethanesulfonic acid) (pH 6.5, 50 mM), MnCl2 (10 mM), Triton X-100 (trade name) (0.1%), UDP-GalNAc (2 mM) and UDP-[^14C]GlcNAc (40 nCi) were mixed and supplemented with 5 μl G34 enzyme solution, followed by dilution with H2O to a total volume of 20 μl (see Table 1).
The above reaction mixtures were each reacted at 37° C. for 16 hours. After completion of the reaction, 200 μl H2O was added and each mixture was lightly centrifuged to obtain the supernatant. […] The eluate was mixed with 5 ml liquid scintillator ACSII (Amersham Biosciences) and measured for the amount of radiation with a scintillation counter (Beckman Coulter).

For data set [2], the target named is T1, human G34 protein. Nature of the data set: Time course of G34 enzymatic activity with Bz-β-GlcNAc as acceptor.
Data set [3] deals with T1, human G34 protein. Briefly: Optimum buffer and optimum pH for GalNAc transferase activity of G34. As to conditions: acceptor pNp-β-GlcNAc. How it is done:
The following reaction system was used for examining the optimum buffer and pH for the GalNAc transferase activity of G34. The acceptor substrate used was pNp-β-GlcNAc.
Any one of the following buffers was used (final concentrations in parentheses): MES (2-morpholinoethanesulfonic acid) buffer (pH 5.5, 5.78, 6.0, 6.5 and 6.75, 50 mM), sodium cacodylate buffer (pH 5.0, 5.6, 6.0, 6.2, 6.6, 6.8, 7.0, 7.2, 7.4 and 7.5, 25 mM) and N-[2-hydroxyethyl]piperazine-N′-[2-ethanesulfonic acid](HEPES) buffer (pH 6.75, 7.00, 7.30, 7.40 and 7.50, 14 mM). The substrate (10 nmol), MnCl2 (10 mM), Triton CF-54 (trade name) (0.3%), UDP-GalNAc (2 mM) and […] (40 nCi) were mixed and supplemented with 5 μl G34 enzyme solution, followed by dilution with H2O to a total volume of 20 μl.
The above reaction mixtures were each reacted at 37° C. for 16 hours. After completion of the reaction, 200 μl H2O was added and each mixture was lightly centrifuged to obtain the supernatant. The supernatant was passed through a Sep-Pak plus C18 Cartridge (Waters), which had been washed once with 1 ml methanol and twice with 1 ml H2O and then equilibrated, to allow the substrate and product in the supernatant to adsorb to the cartridge. After washing the cartridge twice with 1 ml H2O, the adsorbed substrate and product were eluted with 1 ml methanol. The eluate was mixed with 5 ml liquid scintillator ACSII (Amersham Biosciences) and measured for the amount of radiation with a scintillation counter (Beckman Coulter).

The mark [4] stands for this setting: sodium cacodylate buffer pH 5.0.
Setting [5] is: sodium cacodylate buffer pH 5.6.
Where [6] appears, read: sodium cacodylate buffer pH 6.0.
[7] abbreviates: sodium cacodylate buffer pH 6.2.
Where [8] appears, read: sodium cacodylate buffer pH 6.6.
Where [9] appears, read: sodium cacodylate buffer pH 6.8.
Setting [10] is: sodium cacodylate buffer pH 7.0.
Setting [11] is: sodium cacodylate buffer pH 7.2.
[12] abbreviates: sodium cacodylate buffer pH 7.4.

Take `CC(=O)N[C@H]1[C@H](Oc2ccc([N+](=O)[O-])cc2)O[C@H](CO)[C@@H](O)[C@@H]1O` [pNp-β-GlcNAc]: the “GalNAc transfer to acceptor substrate” value on human G34 protein [1] is “ability to transfer GalNAc to pNp-β-GlcNAc”.

B1: G34: human β1,3-N-acetyl-D-galactosaminyltransferase protein (SEQ ID NO: 2), expressed FLAG-tagged from amino acid 36 to the C-terminal end (protein, listed as Homo sapiens)
chain: PADQLALFPQWKSTHYDVVVGVLSARNNHELRNVIRSTWMRHLLQHPTLSQRVLVKFIIGAHGCEVPVEDREDPYSCKLLNITNPVLNQEIEAFSLSEDTSSGLPEDRVVSVSFRVLYPIVITSLGVFYDANDVGFQRNITVKLYQAEQEEALFIARFSPPSCGVQVNKLWYKPVEQFILPESFEGTIVWESQDLHGLVSRNLHKVTVNDGGGVLRVITAGEGALPHEFLEGVEGVAGGFIYTIQEGDALLHNLHSRPQRLIDHIRNLHEEDALLKEESSIYDDIVFVDVVDTYRNVPAKLLNFYRWTVETTSFNLLLKTDDDCYIDLEAVFNRIVQKNLDGPNFWWGNFRLNWAVDRTGKWQELEYPSPAYPAFACGSGYVISKDIVKWLASNSGRLKTYQGEDVSMGIWMAAIGPKRYQDSLWLCEKTCETGMLSSPQYSPWELTELWKLKERCGDPCRCQAR
modifications: FLAG tag
Regarding B1, the “Area (%)” value with human G34 protein [2] (reaction time 1 hour) was 0%; with human G34 protein [2] (reaction time 2 hours), 2.388%; in the data set with human G34 protein [2] (reaction time 4 hours), 6.195%; with human G34 protein [2] (reaction time 16 hours), 13.719%. In addition, the “+ (amount of radiation)” value with human G34 protein [3] (HEPES buffer pH 6.75) was determined as 4894; with human G34 protein [3] (HEPES buffer pH 7.00), 4912; with human G34 protein [3] (HEPES buffer pH 7.30), 4294; with human G34 protein [3] (HEPES buffer pH 7.40), 6630; with human G34 protein [3] (HEPES buffer pH 7.50) it was 6895; with human G34 protein [3] (MES buffer pH 5.50), 3735. Further, the “+ (amount of radiation)” value with human G34 protein [3] (MES buffer pH 5.78) turned out to be 3755; with human G34 protein [3] (MES buffer pH 6.00), 2514; with human G34 protein [3] (MES buffer pH 6.50), 1981; in the data set with human G34 protein [3] (MES buffer pH 6.75), 3289; with human G34 protein [3] (setting [4]) it was 6042; with human G34 protein [3] (setting [5]) it was 3353. Besides, the “+ (amount of radiation)” value with human G34 protein [3] (setting [6]) came to 2689; with human G34 protein [3] (setting [7]), 907; in the data set with human G34 protein [3] (setting [8]) it was 1093; in the data set with human G34 protein [3] (setting [9]), 2488; with human G34 protein [3] (setting [10]), 4965; with human G34 protein [3] (setting [11]), 4377. The “+ (amount of radiation)” value with human G34 protein [3] (setting [12]) came to 4930. The “HEPES (+ minus −)” value with human G34 protein [3] (HEPES buffer pH 6.75) is reported as 4745; with human G34 protein [3] (HEPES buffer pH 7.00), 4791; with human G34 protein [3] (HEPES buffer pH 7.30), 4167; with human G34 protein [3] (HEPES buffer pH 7.40) it was 6510; in the data set with human G34 protein [3] (HEPES buffer pH 7.50), 6655. The “MES (+ minus −)” value in the data set with human G34 protein [3] (MES buffer pH 5.50) is on record as 3538; with human G34 protein [3] (MES buffer pH 5.78), 3571; with human G34 protein [3] (MES buffer pH 6.00), 2373; with human G34 protein [3] (MES buffer pH 6.50) it was 1247; with human G34 protein [3] (MES buffer pH 6.75) it was 3153. Besides, the “Sodium cacodylate (+ minus −)” value amounted to 5838 with human G34 protein [3] (setting [4]); 3194 with human G34 protein [3] (setting [5]); 2429 with human G34 protein [3] (setting [6]); 769 in the data set with human G34 protein [3] (setting [7]); 957 in the data set with human G34 protein [3] (setting [8]); 2230 in the data set with human G34 protein [3] (setting [9]). For the same molecule, the “Sodium cacodylate (+ minus −)” value in the data set with human G34 protein [3] (setting [10]) was 4706; with human G34 protein [3] (setting [11]) it was 4068; with human G34 protein [3] (setting [12]), 4626.
